The text below walks through data of patent US20250109186A1.

Numbering of substitutions follows the chain as printed. Where two headings read alike, the source gives them in different places.

In experiment [1] the target is SARS-CoV-2 Omicron BA.1 spike ectodomain (residues 14-1207) with C-terminal His tag (SARS-CoV-2 Omicron BA.1 subvariant).
Experiment [2] addresses SARS-CoV-2 Omicron XBB.1.5 spike ectodomain (residues 14-1207) with C-terminal His tag (SARS-CoV-2 Omicron XBB.1.5 subvariant).
Experiment [3] addresses SARS-CoV-2 Omicron BA.1 RBD (residues 316-526) with C-terminal His tag (SARS-CoV-2 Omicron BA.1 subvariant). Description: SPR (Biacore S200), CM5 chip, His-tagged proteins, 1:1 model. For orientation: In SPR one partner is held on a chip, and binding of the other changes the refractive index at the surface.
Experiment [4] concerns the target SARS-CoV-2 Omicron XBB.1.5 RBD (residues 315-525) with C-terminal His tag (SARS-CoV-2 Omicron XBB.1.5 subvariant). Described as above.
In experiment [5] the target is SARS-CoV-2 Omicron BA.1 RBD (residues 316-526) with C-terminal His tag (SARS-CoV-2 Omicron BA.1 subvariant).

B1: Nanosota-3A, HA- and His-double-tagged (VHH)
VHH: QVQLQESGGGLVQAGGSLRLSCAASGSIFSPNTMGWFRQALGKQREMVAVISSIASTQYANFVKGRFTITRDNTKNTVHLQMNSLIPEDTAVYYCYAVDKSQDYWGQGTQVTVSS
For orientation: EC50 (read off the curve) means the concentration giving half of the maximal effect. Low readings indicate higher potency in that assay, high ones lower potency in that assay. The molecule B1 gave a 50% effective concentration (EC50 (read off the curve)) in experiment [1] of 0.1 µg/mL.

B2: Nanosota-3B, HA- and His-double-tagged (VHH)
VHH: B1 VHH with V50F, Q58S
Molecule B2 had an EC50 (read off the curve) in experiment [1] of 0.02 µg/mL.

B3: Nanosota-3C with His6 tag and HA tag (VHH)
VHH: B1 VHH with M47G, V50F, Q58S, A60W, N61L, F62P
Broadly, the Kd is the concentration at which binding is half-saturated. As to B3, the half-maximal effective concentration (EC50 (read off the curve)) in experiment [2] was 0.03 µg/mL. For the same molecule, the Kd in experiment [3] was 27.3 nM; in experiment [4], 2.04 nM.

B4: Nanosota-3A with C-terminal His tag (VHH)
VHH: B1 VHH
Turning to B4, the Kd in experiment [5] came out at 17.3 nM.
